{
  "source": "patent US20230122991A1",
  "about": "“GROWTH FACTOR FORMULATION FOR CONDITION ASSOCIATED WITH OTIC EVENT” (OTONOMY, INC., priority 2020, published 2023)",
  "type_in_all_cases": "in vivo, rat",
  "key": {"[1]": {"test_system": "noise exposed adult rats", "assay": "Noise-induced hearing loss/synaptopathy, synaptic analysis of inner hair cells (Example A1)", "details": "sustained release formulation, 0.005% BDNF in Poloxamer 407, single unilateral intratympanic administration 24 hrs after noise; Day 28; compared to vehicle treatment; FIG. 3B", "description": "Male rats (Charles River) approximately 10-11 months of age served as subjects (N=6 per group). Prior to any procedures, animals were anesthetized using a combination of xylazine (10 mg/kg) and ketamine (90 mg/kg) for up to one hour via the intraperitoneal route. If needed, an intraoperative booster was administered intraperitoneally representing one-tenth of the original dose.\nNoise exposure—Anesthetized animals (4 at a time) were placed in an enclosure and exposed to noise. The characteristics of the acoustic trauma were as follows: a single period of 1 h, sound pressure level of 105 dB SPL with a narrow band pass of 8-16 kHz. Noise was delivered using a Grason Stadler white noise generator, filtered through a Krohn Hite 3750 unit, amplified using a Crown D75 unit, and conveyed via a JBL speaker (model 2446H). Following treatment, the animals were returned to the vivarium. Noise exposure was calibrated over a range of 80-115 dB SPL across a wide range of frequencies using the Acoustical Interface Precision Microphone System and the Tucker Davis Technologies system. […]\nSynaptic Analysis—Flat-mounted cochlear pieces from each ear were imaged at low magnification (10×) and the total length of the imaged tissue was measured and the frequency domains (4, 10, 20 and 40 kHz) were mapped onto the images. […]"}, "[2]": {"test_system": "adult male rats bilaterally exposed to noise", "assay": "Noise-induced cochlear synaptopathy, ABR thresholds and wave I amplitude (Example G)", "description": "(§1) Animals: Male Sprague-Dawley rats (5-6 months of age) were used for efficacy studies and females (2-3 months) were used for pharmacokinetic studies.\n(§2) Formulations: Human recombinant BDNF was suspended in the thermoreversible polymer Poloxamer 407 (16%) to reach a range of BDNF concentrations.\n(§3) Intratympanic (IT) injection: Formulations were administered under anesthesia as a single IT injection (20 μl) through the tympanic membrane into the middle ear, targeting the round window membrane (RWM).\n(§4) Noise-induced cochlear synaptopathy: Rats (n=44 per treatment group) received a single acoustic trauma (105 dB SPL, 8-16 kHz, 1 h) under anesthesia. 24 hours later (Day 1) animals received a single bilateral IT injection of the treatment regimens. Auditory function (ABR and ABR wave 1 amplitude) was monitored at day 1 and then every 7 days for 28 days. At termination (Day 28), cochleae were collected and assessed for evidence of cochlear synaptopathy (IHC synaptic puncta counts).\nIntratympanic BDNF improves Auditory Brainstem Response (ABR) thresholds and wave I amplitudes in adult rats. The Auditory Brainstem Response (ABR) is an objective test that measures hearing sensitivity and can identify abnormalities in the peripheral auditory system and the auditory pathway up through the brainstem. […]"}, "[3]": {"test_system": "adult rats following noise damage", "assay": "Noise-induced cochlear synaptopathy, IHC synaptic puncta counts (Example G)", "details": "each frequency region throughout the cochlea; BDNF in P407 after noise; Day 28; FIG. 13C", "description": "as §1, §2, §3, §4\nImmunohistochemistry: Dissected cochleae were immunostained with antibodies against presynaptic (CtBP2) and postsynaptic (GluR2) proteins and MyosinVIIa to label hair cells. Cochleae were then frequency mapped and high-magnification images were obtained with a Zeiss LSM-880 confocal microscope and imaged at an interval of 0.35 μm.\nIntratympanic BDNF repairs cochlear synaptopathy in adult rats. […]"}},
  "data": [
    {"molecule": "brain-derived neurotrophic factor (protein, UniProt P23560 129-247, looked up, Neurotrophic factor BDNF in 16% poloxamer 407 gel, Human recombinant BDNF) Neurotrophic factor BDNF: HSDPARRGELSVCDSISEWVTAADKKTAVDMSGGTVTVLEKVPVSKGQLKQYFYETKCNPMGYTKEGCRGIDKRHWNSQCRTTQSYVRALTMDSKKRIGWRFIRIDTSCVCTLTIKRGR", "values": [
      {"measurement": "number of ribbon synapses per inner hair cell", "setting": "[1]", "value": "increased"},
      {"measurement": "ABR threshold shift", "setting": "[2]; 0.05 mg/ml BDNF in P407, intratympanic injection 24 hours after noise exposure, ABR at days 1, 7, 14, and 28, vs P407 vehicle alone, FIG. 12A", "value": "more rapid recovery of initial threshold shifts and overall reduced levels of hearing loss"},
      {"measurement": "ABR wave I amplitudes", "setting": "[2]; BDNF in P407 vs vehicle treatment following noise exposure, across many frequencies, FIG. 12C", "value": "Significant improvements"},
      {"measurement": "synaptic puncta (co-expression of CtBp2 and GluR2) per inner hair cell", "setting": "[3]", "value": "increased"}
    ]}
  ]
}
